# Article PMC5612608 (Contrast Media & Molecular Imaging, 2017)
# How the values were obtained:
# [1] = in vivo; details: male, NOD-SCID, mouse, iv, 16.8 pmol, total radioactivity
# Description: (§1) The animal experiments were planned and performed in accordance with the national legislation on the protection of laboratory animals, and the study plans were approved by the local committee for animal research ethics. Groups of 3-4 mice were used per data point. Biodistribution studies were performed on female immunocompetent NMRI mice (weight: 30 ± 2 g), female Balb/c nu/nu (inoculated 10 million PC-3 cells/mouse 21 days before the experiment, weight 17 ± 2 g), and male inbred immunodeficient NOD-SCID mice (5 million PC-3 cells/mouse, 35 days before the experiment, 31 ± 2 g).
# (§2) Tumor targeting specificity and biodistribution over time were studied on PC-3 xenografted female Balb/c nu/nu and male NOD-SCID mice, respectively. […] An additional group of animals was coinjected with an excess of nonlabeled peptide (20 nmol). The mice were sacrificed at 3 h pi by intraperitoneal injection of Ketalar-Rompun solution (10 mg/mL Ketalar and 1 mg/mL Rompun; 20 μL/g body weight). […] The mice were euthanized at 3 and 24 h pi by cervical dislocation. Tumors, blood, and other organs of interest were collected, weighed, and measured on radioactivity content in a gamma-counter. […] The organ uptake values were expressed as a percentage of injected dose per gram of tissue (% ID/g), except for the gastrointestinal tract and the remaining carcass, which were calculated as % ID per whole sample.
# [2] = system: murine GRPRs; assay: in vivo; set-up: species or system mouse; details: female NMRI mice, 30 min pi, 45 pmol, coinjected 20 nmol unlabeled peptide
# Description: (§3) The animal experiments were planned and performed in accordance with the national legislation on the protection of laboratory animals, and the study plans were approved by the local committee for animal research ethics. Groups of 3-4 mice were used per data point. Biodistribution studies were performed on female immunocompetent NMRI mice (weight: 30 ± 2 g), female Balb/c nu/nu (inoculated 10 million PC-3 cells/mouse 21 days before the experiment, weight 17 ± 2 g), and male inbred immunodeficient NOD-SCID mice (5 million PC-3 cells/mouse, 35 days before the experiment, 31 ± 2 g). […] The injected radioactivity was adjusted to 30 kBq per animal. […] The mice were euthanized at 30 min pi by intraperitoneal injection of Ketalar-Rompun solution (10 mg/mL Ketalar and 1 mg/mL Rompun; 20 μL/g body weight). Blood samples were collected by cardiac puncture. Lung, liver, spleen, pancreas, stomach, small intestines, kidneys, muscle, bone, and the rest of intestines with their content were collected. The organs were weighed and their radioactivity content was measured in a gamma-counter. The data were corrected for background radiation. The organ uptake values were expressed as a percentage of injected dose per gram of tissue (% ID/g), except for the gastrointestinal tract and the remaining carcass, which were calculated as % ID per whole sample.
# [3] = in vivo; set-up: species or system mouse; details: female, NMRI, mouse, in vivo, iv, 45 pmol, total radioactivity
# Description: as §3
# [4] = system: PC-3 xenografts; assay: In vivo binding specificity in PC-3 xenografted Balb/c nu/nu mice; set-up: species or system mouse; details: female Balb/c nu/nu mice with subcutaneous PC-3 tumors, 3 h pi, 45 pmol, coinjected 20 nmol
# Description: as §1, §2
# [5] = system: PC-3 cells; assay: Cellular processing (binding and internalization, acid wash) by PC-3 cells; assay type: cell-based, human; details: 1 nM, 37°C, 24 h incubation, 3 dishes
# Description: The cells were cultured in RPMI-1640 media supplemented with 10% fetal calf serum, PEST (penicillin 100 IU/mL, streptomycin 100 μg/mL), and 2 mM L-glutamine (all from Biochrom AG, Berlin, Germany). This medium is referred to as complete medium in the text. Trypsin-EDTA (0.05% trypsin, 0.02% EDTA in buffer; Biochrom AG) was used for cell detachment. All in vitro experiments were performed in triplicate. […] At predetermined time points (1, 2, 4, 8, and 24 h after the start of incubation) the medium from 3 dishes was discarded and the cells were washed with ice-cold serum-free medium. The membrane-bound and internalized radioactivity were collected using the acid wash method described earlier.
# [6] = Labeling stability: EDTA challenge and PBS, analysed by ITLC; assay type: physicochemical; details: chemical (label) stability, ITLC eluted with citric acid 0.2 M pH 2.0, average ± SD
# Description: Radiolabeling with ^57Co was performed using 3.8–10 nmol (aq. 1 nmol/μL) of NOTA-PEG2-RM26 buffered with 80 μL ammonium acetate (0.2 M, pH 5.5). The mixture was incubated with ^57Co cobalt chloride (10–50 MBq) for 30 min at 60°C. For ^55Co labeling, 1.3 nmol of NOTA-PEG2-RM26 buffered with 80 μL ammonium acetate (0.2 M, pH 5.5) was heated by microwave irradiation for 1 min at 850 W in a sealed vial using a conventional microwave oven (Samsung MW82N-B). […] Labeling yield, radiochemical purity, and in vitro stability were analyzed using instant thin-layer chromatography (ITLC) strips (Agilent Technologies) eluted with citric acid (0.2 M, pH 2.0). In this system, free ^57/55Co migrates with the eluent front (Rf = 1.0) and the radiolabeled construct stays on the application point (Rf = 0.0). The system was previously validated by sodium dodecyl sulfate polyacrylamide gel electrophoresis (SDS-PAGE) and radio-HPLC [7, 8].
structure (smiles),measurement,setting,value
CC(C)C[C@H](NC(=O)C[C@H](O)[C@H](CC(C)C)NC(=O)[C@H](Cc1c[nH]cn1)NC(=O)CNC(=O)[C@@H](NC(=O)[C@H](C)NC(=O)[C@H](Cc1c[nH]c2ccccc12)NC(=O)[C@H](CCC(N)=O)NC(=O)[C@@H](Cc1ccccc1)NC(=O)COCCOCCNC(=O)CN1CCN(CC(=O)O)CCN(CC(=O)O)CC1)C(C)C)C(N)=O [^57Co-NOTA-PEG2-RM26],tissue uptake at 3 h,[1],0.05 ± 0.02 %ID/g
same,"Accumulated radioactivity in receptor-positive organs (pancreas, small intestine, stomach) on coinjection of unlabeled peptide",[2],significantly lower
same,tissue uptake at 0.5 h,[3]; kidney retention,6 ± 2 %ID/g
same,tissue uptake at 0.5 h,[3]; liver uptake,0.65 ± 0.05 %ID/g
same,Tumor uptake and uptake in GRPR-expressing organs on coinjection of excess unlabeled peptide,[4],inhibited
same,Internalized fraction of cell-associated radioactivity,[5],12%
same,Release in the presence of excess EDTA,"[6]; 1000-fold molar excess of EDTA disodium salt, 1 h, room temperature",0.7 ± 0.2%
same,Release in PBS,"[6]; PBS, 1 h incubation at room temperature",0.07 ± 0.11%
